One molecule from US20180237519A1 (OHIO STATE INNOVATION FOUNDATION, published 2018) can be followed below.

In this assay the target is T1, CS-1 (human, UniProt Q9NQ25 23-335).
T1 sequence (looked up): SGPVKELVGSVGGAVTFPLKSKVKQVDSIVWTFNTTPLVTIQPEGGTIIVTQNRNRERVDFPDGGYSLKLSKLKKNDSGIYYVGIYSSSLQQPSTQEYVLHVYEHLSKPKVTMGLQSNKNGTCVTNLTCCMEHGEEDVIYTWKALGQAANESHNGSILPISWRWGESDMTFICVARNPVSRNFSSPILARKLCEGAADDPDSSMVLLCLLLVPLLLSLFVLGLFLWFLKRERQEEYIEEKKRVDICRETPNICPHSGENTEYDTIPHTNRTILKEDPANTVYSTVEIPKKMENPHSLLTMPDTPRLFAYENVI
The assay can be described thus: cell-based or functional assay.

B1: anti-CS-1 tri-specific cytotoxic lymphocytes engager (TriCLE) (bispecific antibody)
chain: QVQLVESGGGLVKPGGSLRLSCAASGFTFSSYGMHWVRQAPGKGLEWVAFIRYDGSNKYYADSVKGRFTISRDNSKNTLYLQMNSLRAEDTAVYYCAKDRGLGDGTYFDYWGQGTTVTVSSGGGGSGGGGSGGGGSQSALTQPASVSGSPGQSITISCSGSSSNIGNNAVNWYQQLPGKAPKLLIYYDDLLPSGVSDRFSGSKSGTSAFLAISGLQSEDEADYYCAAWDDSLNGPVFGGGTKLTVLPSGQAGAAASESLFVSNHAYKLELKTGAGFTLPTSYHQQCYYVALDEAQVNSITFTFDTGSGSGTFRDPVGTYRYSASYILLKPSQGPKQQYWAVGTIVDQSAKCTISVRDGVSTSMSKQSQTMVIDGGGGSGGGGSGGGGSSVTVSTGQGWYDMARTAIMTSRACYYVASDESTPSSLQMYATSSSKDVTLTAKDKFKQNLRTESDSPHIMGIWELGQGPRQKVWNMWYTTFSYGSAKCSLKVSAGPRVLEAGPQQLQVQSHHHHHH
For the molecule B1, the “EC50 of cytotoxicity of TriCLE-activated PBMCs against H929” value is 1.2 nM, the “EC50 of cytotoxicity of TriCLE-activated PBMCs against MM1.s” value worked out at 0.003 nM and the “EC50 of cytotoxicity of TriCLE-activated PBMCs against RPMI-8226” value came to 1.8 nM.
